This series is described as follows: amyloid nucleation score (Sup35N fusion, yeast selection) (log enrichment); library NNK1; higher = more nucleation; inactive = no reads after selection. Summed up:
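After 24 hours of induction with 100 μM copper sulfate, psi-negative yeast expressing peptides of 20 random codons fused to Sup35N were grown for 7 days at 30°C on medium lacking adenine and uracil. Input and output plasmid inserts were sequenced with Illumina, and sequences with under 100 input reads were discarded. Scores for nucleation are the DiMSum log enrichment of output over input reads, centred on the mode score of non-aggregating sequences.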

± gives the uncertainty stated by the source.

Consider AKMRMNNSFFFTVNWVLMNW, for which the amyloid nucleation score is -0.461 ± 0.4. Substance LMFLGWSNRKMTSHSIMTVL displayed an amyloid nucleation score of 0.293 ± 1.

Take IRQQFKCYGEFCATM: the amyloid nucleation score was -0.587 ± 1.2. The same measure for AEHYPGIVVCLSLCDS: -1.77 ± 2.4. The value for LNHRIYNLLHVILWVKQWMK was 0.164 ± 1.5; that for GARYVLYMLT was -0.85 ± 0.88; that for KGAVFVPETAPLI was 0.93 ± 1.

In turn, SRSIRSYDPWMVCMSMWLSD gave an amyloid nucleation score of 1.13 ± 0.9. Turning to SSLASMASVDRKNHRGSGEG, the amyloid nucleation score worked out at 1.77 ± 0.11.

The substance KNVSLRYILAYCRHYKLTHG registered an amyloid nucleation score of 0.19 ± 1.2. As for ISVHHFR, the amyloid nucleation score came out at 0.282 ± 0.57. The same measure for AGRMEGYESEGPPGHA: 0.187 ± 0.39; for LYYDSRASFPCISLEIERYV: -0.083 ± 0.33. The same measure for AVFIGCVNAGS: 0.621 ± 0.39; for QESVGSNRRVVGDNASLRLL: -0.211 ± 0.86. Substance YRTSWEAVQGWSFS yielded an amyloid nucleation score of -1.64 ± 1.3.

For LVFSRYYRCLFTIDF, the amyloid nucleation score is 3.62 ± 0.11. For the substance LNRTRCLWL, the amyloid nucleation score was 0.877 ± 0.58. The same measure for QNKVCNCDRVFTRFIESNSL: -0.254 ± 0.38. The same measure for IRELRSDFSGSMVDERFLGE: 0.489 ± 1.1. The same measure for LVLHNVDELYINSSHF: 0.77 ± 0.5; for MLSYVRIGSDQDVVWSDLQR: 2 ± 0.1; for LIKKKSNSIYMI: -0.062 ± 0.3. WSGTDRMCSVMTYS had an amyloid nucleation score of -0.841 ± 0.51. The value for RNCNWDYEVNIKWRVRVEFL was “inactive”. The value for RVLVDPRSSFVYSTRFDDD was 0.2 ± 0.45; that for GRHRRSRRM was “inactive”; that for FEVNFPAYIYWSDCPVVGVS was -0.127 ± 0.38.

VNGQYMRSHWFGDTTLLPIC showed an amyloid nucleation score of -0.316 ± 0.24. The same measure for CGRTYRGLS: 0.959 ± 0.72; for WCNRHHDWVVLLAIVAGGEV: 0.873 ± 0.64; for VQIDK: 0.514 ± 0.33. The value for NTLSISDSYVEYETWEVIPV was 1.62 ± 0.5; that for SCRSGRRRPLPTGGPILATN was -0.015 ± 0.64; that for LFIVTFSYFLSPRLVQWYAL was 0.516 ± 0.67.

On to FLCSIISYS, for which the amyloid nucleation score stood at 5.572 ± 0.048.

PLSWTNMKYKGSCVYFMVFF displayed an amyloid nucleation score of -2.14 ± 2.4. The value for LKHDRSNR was 0.345 ± 1.2; that for YRMGLGS was -0.455 ± 0.96. The same measure for YFAVL: “inactive”; for VACNKLRYMCRCQYNMTVWF: -0.262 ± 0.62. The same measure for NSCTGSGGCSWEDKGNWCVK: 0.183 ± 0.28; for PCMFYWTVLGRLRTKPPSGV: -0.153 ± 0.44; for KRNRVAIILWICNNYYEWNN: -0.747 ± 0.39. The substance CFCFFIVSPMMF gave an amyloid nucleation score of 3.89 ± 0.056. The same measure for IVRNGQATWSWILRGPSWVG: -1.32 ± 0.48; for ITFLRSTIPSVRTRQRLHEL: 0.783 ± 0.4. The same measure for GIFNYWRYYMVDV: 0.673 ± 0.29. The same measure for GHWDTVGIR: -0.292 ± 0.28; for SGAYATVPVYQEWLSQIKLL: 0.327 ± 1. GFLTSSIYRSLAVQLNQSWW had an amyloid nucleation score of 0.078 ± 0.32. SARYLMEFWKVHIKAYIMSF returned an amyloid nucleation score of 0.099 ± 0.79. The same measure for PGRFLGLNSMTALVWY: 0.095 ± 0.37.

LGHGHIDGQYKGYRVKWTYD showed an amyloid nucleation score of -0.644 ± 0.35. The value for RLYPL was 0.908 ± 0.34; that for EGFITSSMALGLHFVLLGWV was -1.37 ± 1.3; that for ECPRVSLASGDVE was 1.17 ± 0.66. The same measure for LCCFKSFVSENMN: 6.447 ± 0.05. The value for SFYCSHEVYLCNALYIDRVR was 3.67 ± 0.098. In turn, IAVKQFSRPPVFYIYSSLEC yielded an amyloid nucleation score of 0.642 ± 0.62. The value for PFQRGIYHWLYILGLVVELP was “inactive”. The same measure for ARHRDALFRCEDMFGKVQYS: -0.296 ± 0.56; for CVTDIRAWFKVGLCNSDVLQ: 3.89 ± 0.096; for AIEPHDGFWGVWSTLGVILI: 1.32 ± 0.93.

Consider GYCLVYLAIGGFARILGYPV, for which the amyloid nucleation score is -0.461 ± 1.1.

Regarding FGTLGK, the amyloid nucleation score stood at 1.88 ± 0.38. The same measure for GFSKMLLAIVSIQDKGSWDA: 2.41 ± 0.17; for HRQLWC: -1.96 ± 2.1; for DWRFSGALRLSLMHTYQ: 4.09 ± 0.072. As for FGKSYRRFFARTKFGKAGGP, the amyloid nucleation score was -1.29 ± 1.8.

The substance APLYLHMWSCYSLMLSPSMG gave an amyloid nucleation score of -1.5 ± 2.4. The value for DSVLNGSFAACLDWDALPGQ was 0.272 ± 0.54; that for RKGSMWFCRCLVRMRHRALP was -0.295 ± 0.76; that for PRSMRKNSYGLGSGVRDHVQ was -0.238 ± 0.56. As for DWGPTNTFGPYQINNLTCSS, the amyloid nucleation score is -1.91 ± 1.9. The same measure for DCKLGISGIDLVNRFLYPCM: 1.33 ± 0.84; for AFVIFVYNKSIAQIWHFRGY: -0.797 ± 0.37; for WPSKAQAVFTNTSTLNVSRF: “inactive”. The same measure for AYVRGCLFILPFRPTQV: 1.42 ± 0.14; for NTKSSVSYYFFMGIIFFSEI: 0.355 ± 0.32; for LVWVS: 0.134 ± 0.65.

Consider AMLLLTCGL, for which the amyloid nucleation score is 0.481 ± 0.74.

Regarding FFPTEYHALENLLHADVRVK, the amyloid nucleation score is -0.682 ± 0.36.

On to WSSWGGSTGVVRKREELCGR, for which the amyloid nucleation score is -0.44 ± 0.5. The same measure for NIEIRVCSRIVGHGLKFPKP: 3.37 ± 0.17. The same measure for VCSKGACSLGDVNCDSTDVG: 0.104 ± 0.63.

As for CVMFLGFVYVFSSLYPT, the amyloid nucleation score was -0.981 ± 0.63. The same measure for HYGAKCGGPRAWGRDTDR: 0.156 ± 0.69; for QSLFFPFARFVTNILRYYKF: -0.531 ± 0.45; for VKSGALKYRKIGAYGTGSRL: 0.728 ± 1.2. The value for VVCARVLRWEVGYVFGKIER was “inactive”; that for KTAPGLKCIQIEVWQY was 0.035 ± 0.35. Consider TQPLEIK, for which the amyloid nucleation score was -0.165 ± 1.5. The value for LVSDSYNSLSLQDNLALLLI was 0.261 ± 0.4.

As to PFSAWYNNNTLTYSIDCINF, the amyloid nucleation score was determined as 0.58 ± 0.19.

Consider SWNRGVLESHKHAYFALPQF, for which the amyloid nucleation score worked out at 0.417 ± 0.24.

Substance ILKDVFIITVISSCSITSKL registered an amyloid nucleation score of 2.37 ± 0.18. The same measure for NKSVNLEYGRWVNMVPGLM: “inactive”. The value for SFESVVIVLKLNALFPCVST was -0.048 ± 0.28; that for LTCEFRGTRPMMYASDPLFY was 1.14 ± 0.76.

As for PGRTLIVFFCVVVCQCEDNR, the amyloid nucleation score was found to be 1.44 ± 0.5. The same measure for SRATSYKFSTGRCCWTGTVK: 0.072 ± 0.91; for HPLVGQELKDWNNELYVHVL: 0.534 ± 0.79. PTLLALYGG showed an amyloid nucleation score of -0.414 ± 0.61. The value for TYFWGSLIPEWWLFELYPLE was 1.66 ± 0.32. The same measure for EMYKTRAFLSRKYMRHLLFN: -0.316 ± 0.39; for GPRVSPVKFIVRLGQVNLDR: 0.448 ± 0.61. The same measure for RYIPARGVNGGYSVVVRHLG: -0.436 ± 0.38; for PCAETLVRHIHAYLKWI: 0.065 ± 1.2; for VWVHD: 0.257 ± 0.26. Take SVVNDFVYRL: the amyloid nucleation score was -0.588 ± 0.86. The same measure for TIASTGVFNM: “inactive”. The value for QEPCGW was -0.172 ± 0.29; that for SDMFSLNYSFDERTFWKQTS was “inactive”; that for PLARRVSAHILVRMNYRNFM was -0.048 ± 0.37. The same measure for YCDAYPGRKTEILVVQLF: 5.6 ± 0.064; for AFFSAKIKAPFNDVFGYGFV: 0.289 ± 0.33. The substance WSVSASQFRSVPRSPFALSQ returned an amyloid nucleation score of -0.303 ± 0.26. Take NTGIS: the amyloid nucleation score is -1.22 ± 1.4. The value for FIFPAHCSLRSIDFSQGYIR was -0.321 ± 0.36; that for YNVKSVCGRAPIGVMGRKWG was 0.618 ± 0.52. The value for ISYVSVS was 0.073 ± 0.41.

Turning to VIVWGSRSFLGC, the amyloid nucleation score came to 3.49 ± 0.1.

GLVNLADTGTVVDPSKGWLG displayed an amyloid nucleation score of -0.441 ± 0.61. For the substance SVPMMSML, the amyloid nucleation score amounted to 0.019 ± 0.25. The value for LGQEL was 0.416 ± 0.39; that for GIPSKTFDVCSSPNIKSILF was 0.317 ± 1.2; that for FSCKSAPQFCRWG was 0.718 ± 0.42.

Regarding YVNFLGLLDCEL, the amyloid nucleation score is -0.028 ± 0.48. The value for VNVFYLMFQNIIIQVFLCVF was “inactive”. The same measure for ENKHVGICSGVQFVAFETCY: “inactive”. The value for QYNTLCFGMSTGYLYLNISS was 2.83 ± 0.19; that for RVILFFRFIAILEDCATVSF was -0.544 ± 0.25; that for MIWVWNRYIIPYFRFCGATL was 0.268 ± 1.2. In the case of CFVVCDMAF, the amyloid nucleation score result is “inactive”. The same measure for EYGDDVLWMFSTILCVRGEW: -0.626 ± 0.47. The same measure for HESYVVRIYIFEDRRYLCEV: 0.037 ± 0.6; for PVDVGYIRIPP: 0.093 ± 0.87; for SVESYTKAISIYTIGERIVL: -0.004 ± 1.6. The value for INLTNIHFCHVNFVVGALKP was 5.98 ± 0.079.
